Results from the supplement of paper PMC10567573.

B1: PLAGL1 (parent)
chain: EKPPSGTKEKKHQCDHCERCFYTR

Variants of: B1
Assay: protein stability index of a GFP-peptide fusion (GPS, HEK-293T) (PSI 1-6); higher = more stable
Conditions: c terminus: a fixed tail appended
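Note: lentivirally expressed fusions sorted by FACS into six bins by GFP to DsRed ratio, PSI derived from sequencing read proportions per bin multiplied by bin number.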

Variant	protein stability index
EKPPSGTKEKKHQCPHCERCFYTR	2.25
EKPPSGTKEKKHQCDHCERRFYTR	1.98
EKPPSGTKEKKHQCDHCERMFYTR	2.23
EKPPSGTKEKKHQCDHCERNFYTR	2.6
EKPPSGTKEKKHQCDHCERHFYTR	2.58
EKPPSGTKEKKHQCDHCERGFYTR	2.5
EKPPSGTKEKKHQCDHCERKFYTR	3.58
EKPPSGTKEKKHQCDHCERAFYTR	2.48
EKPPSGTKEKKHQCDHCERDFYTR	2.59
EKPPSGTKEKKHQCDHCERLFYTR	2.95
EKPPSGTKEKKHQCDHCEREFYTR	3.37
EKPPSGTKEKKHQCDHCERQFYTR	2.37
EKPPSGTKEKKHQCDHCERIFYTR	2.68
EKPPSGTKEKKHQCDHCERSFYTR	1.74
EKPPSGTKEKKHQCDHCERTFYTR	3.04
EKPPSGTKEKKHQCDHCERVFYTR	3.06
EKPPSGTKEKKHQCDHCERPFYTR	3.07
EKPPSGTKEKKHQCDHCERFFYTR	2.56
EKPPSGTKEKKHQCDHCEMCFYTR	3.83
EKPPSGTKEKKHQCDHCESCFYTR	3.9
EKPPSGTKEKKHQCDHCEQCFYTR	4.34
EKPPSGTKEKKHQCDHCEFCFYTR	3.69
EKPPSGTKEKKHQCDHCEWCFYTR	3.29
EKPPSGTKEKKHQCDHCEGCFYTR	3.24

Variant	protein stability index
EKPPSGTKEKKHQCDHCECCFYTR	3.3
EKPPSGTKEKKHQCDHCEKCFYTR	4
EKPPSGTKEKKHQCDHCENCFYTR	4.36
EKPPSGTKEKKHQCDHCELCFYTR	3.45
EKPPSGTKEKKHQCDHCEACFYTR	4.31
EKPPSGTKEKKHQCDHCEICFYTR	3.52
EKPPSGTKEKKHQCDHCEHCFYTR	4.21
EKPPSGTKEKKHQCDHCEDCFYTR	4.91
EKPPSGTKEKKHQCDHCETCFYTR	3.52
EKPPSGTKEKKHQCDHCEVCFYTR	3.39
EKPPSGTKEKKHQCDHCEYCFYTR	3.79
EKPPSGTKEKKHQCDHCEPCFYTR	3.3
EKPPSGTKEKKHQCDHCEECFYTR	4.54
EKPPSGTKEKKHQCDHPERCFYTR	4.33
EKPPSGTKEKKHQCDHQERCFYTR	3.9
EKPPSGTKEKKHQCDHLERCFYTR	4
EKPPSGTKEKKHQCDHAERCFYTR	3.71
EKPPSGTKEKKHQCDHRERCFYTR	3.15
EKPPSGTKEKKHQCDHHERCFYTR	3.67
EKPPSGTKEKKHQCDHIERCFYTR	3.49
EKPPSGTKEKKHQCDHKERCFYTR	4.07
EKPPSGTKEKKHQCDHMERCFYTR	3.63
EKPPSGTKEKKHQCDHEERCFYTR	3.69
EKPPSGTKEKKHQCDHVERCFYTR	4.05

Variant	protein stability index
EKPPSGTKEKKHQCDHTERCFYTR	3.48
EKPPSGTKEKKHQCDHWERCFYTR	3.13
EKPPSGTKEKKHQCDHYERCFYTR	3.15
EKPPSGTKEKKHQCDHFERCFYTR	3.4
EKPPSGTKEKKHQCDHSERCFYTR	3.63
EKPPSGTKEKKHQCDHGERCFYTR	3.43
EKPPSGTKEKKHQCDHNERCFYTR	3.76
EKPPSGTKEKKHQCDHDERCFYTR	3.97
EKPPSGTKEKKKQCDHCERCFYTR	3.55
EKPPSGTKEKKFQCDHCERCFYTR	2.39
EKPPSGTKEKKVQCDHCERCFYTR	1.99
EKPPSGTKEKKGQCDHCERCFYTR	2.42
EKPPSGTKEKKEQCDHCERCFYTR	3.04
EKPPSGTKEKKSQCDHCERCFYTR	2.88
EKPPSGTKEKKYQCDHCERCFYTR	2.15
EKPPSGTKEKKPQCDHCERCFYTR	2.2
EKPPSGTKEKKDQCDHCERCFYTR	3.09
EKPPSGTKEKKLQCDHCERCFYTR	2.55
EKPPSGTKEKKIQCDHCERCFYTR	2.6
EKPPSGTKEKKRQCDHCERCFYTR	2.17
EKPPSGTKEKKNQCDHCERCFYTR	2.52
EKPPSGTKEKKAQCDHCERCFYTR	2.44
EKPPSGTKEKKCQCDHCERCFYTR	4.59
EKPPSGTKEKKTQCDHCERCFYTR	3.24

Variant	protein stability index
EKPPSGTKEKKMQCDHCERCFYTR	2.28
EKPPSGTKEKKQQCDHCERCFYTR	3.23
EKPPSGTKEKKWQCDHCERCFYTR	1.89
EKPPSGTKEKKHQIDHCERCFYTR	3.73
EKPPSGTKEKKHQQDHCERCFYTR	4.06
EKPPSGTKEKKHQWDHCERCFYTR	3.4
EKPPSGTKEKKHQNDHCERCFYTR	3.71
EKPPSGTKEKKHQKDHCERCFYTR	4.08
EKPPSGTKEKKHQEDHCERCFYTR	4.84
EKPPSGTKEKKHQFDHCERCFYTR	3.81
EKPPSGTKEKKHQRDHCERCFYTR	3.97
EKPPSGTKEKKHQYDHCERCFYTR	3.56
EKPPSGTKEKKHQADHCERCFYTR	3.97
EKPPSGTKEKKHQGDHCERCFYTR	3.96
EKPPSGTKEKKHQPDHCERCFYTR	4.03
EKPPSGTKEKKHQHDHCERCFYTR	3.57
EKPPSGTKEKKHQSDHCERCFYTR	4.02
EKPPSGTKEKKHQTDHCERCFYTR	3.8
EKPPSGTKEKKHQMDHCERCFYTR	4.11
EKPPSGTKEKKHQVDHCERCFYTR	4.55
EKPPSGTKEKKHQLDHCERCFYTR	4.19
EKPPSGTKEKKHQDDHCERCFYTR	4.14
